Here are results for five variants from IntAct's records for PubMed 23273425.

Sequences and labels used below:
B1: Splicing factor 1 (Homo sapiens), Q15637 (parent)
chain: MATGANATPLDFPSKKRKRSRWNQDTMEQKTVIPGMPTVIPPGLTREQERAYIVQLQIEDLTRKLRTGDLGIPPNPEDRSPSPEPIYNSEGKRLNTREFRTRKKLEEERHNLITEMVALNPDFKPPADYKPPATRVSDKVMIPQDEYPEINFVGLLIGPRGNTLKNIEKECNAKIMIRGKGSVKEGKVGRKDGQMLPGEDEPLHALVTANTMENVKKAVEQIRNILKQGIETPEDQNDLRKMQLRELARLNGTLREDDNRILRPWQSSETRSITNTTVCTKCGGAGHIASDCKFQRPGDPQSAQDKARMDKEYLSLMAELGEAPVPASVGSTSGPATTPLASAPRPAAPANNPPPPSLMSTTQSRPPWMNSGPSESRPYHGMHGGGPGGPGGGPHSFPHPLPSLTGGHGGHPMQHNPNGPPPPWMQPPPPPMNQGPHPPGHHGPPPMDQYLGSTPVGSGVYRLHQGKGMMPPPPMGMMPPPPPPPSGQPPPPPSGPLPPWQQQQQQPPPPPPPSSSMASSTPLPWQQNTTTTTTSAGTGSIPPWQQQQAAAAASPGAPQMQGNPTMVPLPPGVQPPLPPGAPPPPPPPPPGSAGMMYAPPPPPPPPMDPSNFVTMMGMGVAGMPPFGMPPAPPPPPPQN

This assay covers variants of B1. Conditions: with U2AF2, P26368.
U2AF2, P26368, sequence (P26368 whole entry): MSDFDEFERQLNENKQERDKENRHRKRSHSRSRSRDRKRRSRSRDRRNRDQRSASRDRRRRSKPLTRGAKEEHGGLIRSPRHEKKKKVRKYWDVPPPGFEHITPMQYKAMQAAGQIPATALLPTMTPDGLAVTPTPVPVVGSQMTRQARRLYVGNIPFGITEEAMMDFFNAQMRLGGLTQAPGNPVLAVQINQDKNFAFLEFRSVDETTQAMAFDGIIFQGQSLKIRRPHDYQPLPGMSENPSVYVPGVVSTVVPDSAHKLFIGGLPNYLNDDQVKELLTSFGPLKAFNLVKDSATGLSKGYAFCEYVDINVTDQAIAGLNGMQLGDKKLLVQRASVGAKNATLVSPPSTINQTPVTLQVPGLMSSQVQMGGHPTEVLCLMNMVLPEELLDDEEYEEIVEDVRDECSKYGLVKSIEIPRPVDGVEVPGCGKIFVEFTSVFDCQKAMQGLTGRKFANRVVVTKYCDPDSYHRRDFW
Turning to S80A;S82A, the “effect of a mutation on the interaction” value was “decreasing interaction strength”.

With R46D, the “effect of a mutation on the interaction” value is reported as “decreasing interaction strength”.

For R93E;R97E;R100E, the “effect of a mutation on the interaction” value is recorded as “decreasing interaction strength”.

Regarding I40R;I53R, the “effect of a mutation on the interaction” value was “decreasing interaction strength”.

In the case of W22A, the “effect of a mutation on the interaction” value is given as “disrupting interaction strength”.
